Test results as given in patent US20250019454A1.

Key:
[1] = target: ΔCRD4-TNFR2 protein (with CRD4 deletion), on CHO-S cells (human) (UniProt P20333); assay: FACS on CHO-S cells with ΔCRD4-TNFR2, secondary antibody alone (background control)
[2] = target: ΔCRD1-TNFR2 protein (with CRD1 deletion), on CHO-S cells (human) (UniProt P20333); assay: FACS on CHO-S cells with ΔCRD1-TNFR2, secondary antibody alone (background control)
[3] = target: ΔCRD2-TNFR2 protein (with CRD2 deletion), on CHO-S cells (human) (UniProt P20333); assay: FACS on CHO-S cells with ΔCRD2-TNFR2, secondary antibody alone (background control)
Chain of ΔCRD2-TNFR2 protein (with CRD2 deletion), on CHO-S cells (human) (P20333 other isoform, or with tags, fused parts or gaps mutant): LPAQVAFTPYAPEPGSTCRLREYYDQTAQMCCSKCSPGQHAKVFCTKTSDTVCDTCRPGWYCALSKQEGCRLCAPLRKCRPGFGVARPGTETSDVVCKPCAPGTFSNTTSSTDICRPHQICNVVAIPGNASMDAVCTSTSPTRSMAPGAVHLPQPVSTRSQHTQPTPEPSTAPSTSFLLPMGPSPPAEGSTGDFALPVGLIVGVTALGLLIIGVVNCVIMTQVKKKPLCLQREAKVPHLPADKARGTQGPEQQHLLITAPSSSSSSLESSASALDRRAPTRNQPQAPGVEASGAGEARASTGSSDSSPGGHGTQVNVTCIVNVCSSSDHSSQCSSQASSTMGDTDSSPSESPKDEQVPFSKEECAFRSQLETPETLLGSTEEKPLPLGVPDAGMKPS

[4] = target: ΔCRD3-TNFR2 protein (with CRD3 deletion), on CHO-S cells (human) (UniProt P20333); assay: FACS on CHO-S cells with ΔCRD3-TNFR2, secondary antibody alone (background control)
Chain of ΔCRD3-TNFR2 protein (with CRD3 deletion), on CHO-S cells (human) (P20333 other isoform, or with tags, fused parts or gaps mutant): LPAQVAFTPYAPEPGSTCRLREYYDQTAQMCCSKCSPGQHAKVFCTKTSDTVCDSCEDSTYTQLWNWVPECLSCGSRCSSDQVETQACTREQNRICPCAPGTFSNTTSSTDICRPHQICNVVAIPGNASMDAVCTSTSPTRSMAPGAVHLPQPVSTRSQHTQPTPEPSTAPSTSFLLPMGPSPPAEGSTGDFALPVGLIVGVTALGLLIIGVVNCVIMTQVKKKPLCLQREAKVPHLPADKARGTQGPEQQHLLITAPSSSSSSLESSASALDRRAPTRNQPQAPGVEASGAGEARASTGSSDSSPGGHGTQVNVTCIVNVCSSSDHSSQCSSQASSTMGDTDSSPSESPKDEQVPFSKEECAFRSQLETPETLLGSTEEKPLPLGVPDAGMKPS

Chain of ΔCRD1-TNFR2 protein (with CRD1 deletion), on CHO-S cells (human) (P20333 other isoform, or with tags, fused parts or gaps mutant): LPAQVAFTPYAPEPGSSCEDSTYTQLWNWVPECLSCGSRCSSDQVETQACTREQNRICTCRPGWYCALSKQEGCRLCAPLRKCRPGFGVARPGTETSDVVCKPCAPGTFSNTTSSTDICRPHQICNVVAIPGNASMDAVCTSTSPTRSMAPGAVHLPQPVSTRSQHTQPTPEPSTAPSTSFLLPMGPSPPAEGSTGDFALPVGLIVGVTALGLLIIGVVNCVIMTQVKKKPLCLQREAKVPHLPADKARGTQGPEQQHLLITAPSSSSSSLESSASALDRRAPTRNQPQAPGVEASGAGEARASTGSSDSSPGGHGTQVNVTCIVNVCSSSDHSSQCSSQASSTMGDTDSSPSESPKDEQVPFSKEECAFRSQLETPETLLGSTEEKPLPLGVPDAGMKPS
Chain of ΔCRD4-TNFR2 protein (with CRD4 deletion), on CHO-S cells (human) (P20333 other isoform, or with tags, fused parts or gaps mutant): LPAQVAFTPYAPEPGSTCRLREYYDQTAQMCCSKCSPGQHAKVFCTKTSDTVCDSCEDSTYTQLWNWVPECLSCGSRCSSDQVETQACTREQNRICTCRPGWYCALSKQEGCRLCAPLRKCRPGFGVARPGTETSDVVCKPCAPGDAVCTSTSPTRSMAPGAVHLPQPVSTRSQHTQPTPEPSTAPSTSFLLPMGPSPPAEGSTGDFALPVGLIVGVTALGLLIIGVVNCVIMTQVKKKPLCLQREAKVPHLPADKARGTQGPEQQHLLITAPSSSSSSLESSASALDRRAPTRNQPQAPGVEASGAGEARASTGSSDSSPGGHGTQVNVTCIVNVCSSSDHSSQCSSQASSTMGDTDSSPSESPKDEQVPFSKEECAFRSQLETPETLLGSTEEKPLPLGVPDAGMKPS

Work on “Secondary antibody (Alexa Fluor 647 AffiniPure F(ab')2 Fragment Goat Anti-Human IgG, Fcγ fragment specific, Jackson ImmunoResearch)” yielded a positive rate of binding (% of cells) [1] of 1.02%, a positive rate of binding (% of cells) [2] of 10.2% and a positive rate of binding (% of cells) [3] of 7.33%. It also gave a positive rate of binding (% of cells) [4] of 0.62%.
